# From publication PMC10676354
# B1: DJ1: T19A (protein)
# parent chain: MASKRALVILAKGAEEMETVIPVDVMRRAGIKVTVAGLAGKDPVQCSRDVVICPDASLEDAKKEGPYDVVVLPGGNLGAQNLSESAAVKEILKEQENRKGLIAAICAGPTALLAHEIGFGSKVTTHPLAKDKMMNGGHYTYSENRVEKDGLILTSRGPGTSFEFALAIVEALNGKEVAAQVKAPLVLKD
# What was measured:
# [1] = fluorometric AGE assay, HEK293 mitochondria, MGO 30 min; details: glycan lost; control: DJ1 WT
# [2] = fluorometric AGE assay, HEK293 mitochondria, vehicle (PBS); details: glycan lost; control: DJ1 WT
protein,measurement,setting,value
B1,other: mitochondrial protein glycation,[1],increases
same,other: mitochondrial protein glycation,[2],no change
